Measurements published in publication PMC6433275 (Nature structural & molecular biology, 2019).

Biological target: T1, E. coli MukB (E. coli, UniProt P22523 1-1486)
T1 sequence: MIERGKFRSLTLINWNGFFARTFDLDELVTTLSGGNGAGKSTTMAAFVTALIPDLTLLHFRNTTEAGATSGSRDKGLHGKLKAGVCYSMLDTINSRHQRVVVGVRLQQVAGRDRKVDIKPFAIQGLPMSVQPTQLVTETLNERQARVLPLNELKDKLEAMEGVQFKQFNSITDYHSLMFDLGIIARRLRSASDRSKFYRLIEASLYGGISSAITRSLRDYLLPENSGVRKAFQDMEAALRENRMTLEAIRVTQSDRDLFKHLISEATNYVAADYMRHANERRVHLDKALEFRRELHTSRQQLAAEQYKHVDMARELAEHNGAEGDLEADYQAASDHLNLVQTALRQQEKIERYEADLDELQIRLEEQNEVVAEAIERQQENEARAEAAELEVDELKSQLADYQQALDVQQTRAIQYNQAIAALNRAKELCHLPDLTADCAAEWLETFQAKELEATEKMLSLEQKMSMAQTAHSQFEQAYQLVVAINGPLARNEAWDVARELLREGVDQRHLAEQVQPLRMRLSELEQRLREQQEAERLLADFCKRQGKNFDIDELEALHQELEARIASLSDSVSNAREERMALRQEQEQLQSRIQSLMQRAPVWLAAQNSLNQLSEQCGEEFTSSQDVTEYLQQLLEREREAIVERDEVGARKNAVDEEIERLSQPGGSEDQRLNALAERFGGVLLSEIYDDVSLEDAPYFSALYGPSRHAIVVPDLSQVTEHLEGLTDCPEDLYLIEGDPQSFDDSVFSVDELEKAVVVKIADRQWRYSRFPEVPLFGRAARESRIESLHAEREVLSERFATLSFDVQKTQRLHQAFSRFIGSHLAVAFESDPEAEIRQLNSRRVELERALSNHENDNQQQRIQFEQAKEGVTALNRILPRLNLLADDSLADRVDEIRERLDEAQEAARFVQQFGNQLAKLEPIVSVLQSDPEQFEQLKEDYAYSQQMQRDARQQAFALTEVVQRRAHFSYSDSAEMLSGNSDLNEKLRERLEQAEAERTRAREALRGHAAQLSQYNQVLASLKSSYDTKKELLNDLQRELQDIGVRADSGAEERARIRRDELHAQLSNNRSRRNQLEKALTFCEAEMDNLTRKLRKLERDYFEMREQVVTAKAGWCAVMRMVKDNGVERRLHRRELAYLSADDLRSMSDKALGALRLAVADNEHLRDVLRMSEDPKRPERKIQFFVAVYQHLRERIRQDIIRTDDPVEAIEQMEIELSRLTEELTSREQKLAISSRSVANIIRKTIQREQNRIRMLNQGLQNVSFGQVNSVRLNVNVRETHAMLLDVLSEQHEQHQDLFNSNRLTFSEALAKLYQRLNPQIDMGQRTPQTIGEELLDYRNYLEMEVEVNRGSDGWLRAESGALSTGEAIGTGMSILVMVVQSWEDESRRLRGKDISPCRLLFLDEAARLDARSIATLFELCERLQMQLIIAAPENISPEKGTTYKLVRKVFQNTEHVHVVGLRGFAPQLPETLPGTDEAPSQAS
Assay: SEC

B1: E. coli MukEF complex (complex)
chain 1: MSSTNIEQVMPVKLAQALANPLFPALDSALRSGRHIGLDELDNHAFLMDFQEYLEEFYARYNVELIRAPEGFFYLRPRSTTLIPRSVLSELDMMVGKILCYLYLSPERLANEGIFTQQELYDELLTLADEAKLLKLVNNRSTGSDVDRQKLQEKVRSSLNRLRRLGMVWFMGHDSSKFRITESVFRFGADVRAGDDPREAQRRLIRDGEAMPIENHLQLNDETEENQPDSGEEE
chain 2: MSEFSQTVPELVAWARKNDFSISLPVDRLSFLLAVATLNGERLDGEMSEGELVDAFRHVSDAFEQTSETIGVRANNAINDMVRQRLLNRFTSEQAEGNAIYRLTPLGIGITDYYIRQREFSTLRLSMQLSIVAGELKRAADAAEEGGDEFHWHRNVYAPLKYSVAEIFDSIDLTQRLMDEQQQQVKDDIAQLLNKDWRAAISSCELLLSETSGTLRELQDTLEAAGDKLQANLLRIQDATMTHDDLHFVDRLVFDLQSKLDRIISWGQQSIDLWIGYDRHVHKFIRTAIDMDKNRVFAQRLRQSVQTYFDEPWALTYANADRLLDMRDEEMALRDEEVTGELPEDLEYEEFNEIREQLAAIIEEQLAVYKTRQVPLDLGLVVREYLSQYPRARHFDVARIVIDQAVRLGVAQADFTGLPAKWQPINDYGAKVQAHVIDKY
binding result: binds
